Assay results reported in US20260216242A1 (ALMAC DISCOVERY, published 2026).
Substitutions are numbered along the chain they refer to. Numbers in names are those of the source. Values belong to the binder of their own block, whether it stands above or below them.

Legend:
[1] = molecular target: T1, human ALPI (intestinal alkaline phosphatase) expressed on the surface of CHO cells (human, UniProt P09923 20-503); assay: flow cytometry on CHO-ALPI cells
T1 construct: whole, on cells; The cell-surface form has none; also called CHO-ALPI; hALPI
T1 sequence (looked up): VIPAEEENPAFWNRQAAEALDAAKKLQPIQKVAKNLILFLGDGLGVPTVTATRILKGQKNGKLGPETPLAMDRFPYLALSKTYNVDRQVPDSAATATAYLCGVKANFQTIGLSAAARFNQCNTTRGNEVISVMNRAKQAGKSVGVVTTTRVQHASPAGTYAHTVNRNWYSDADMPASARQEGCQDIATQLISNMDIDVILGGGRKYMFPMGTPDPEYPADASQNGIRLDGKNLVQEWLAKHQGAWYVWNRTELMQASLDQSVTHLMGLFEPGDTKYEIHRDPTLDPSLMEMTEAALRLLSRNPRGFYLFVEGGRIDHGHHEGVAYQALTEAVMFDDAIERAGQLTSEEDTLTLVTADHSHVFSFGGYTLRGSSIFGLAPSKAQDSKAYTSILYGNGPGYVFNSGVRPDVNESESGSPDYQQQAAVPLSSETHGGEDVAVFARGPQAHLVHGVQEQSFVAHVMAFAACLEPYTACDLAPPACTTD

[2] = molecular target: T2, human ALPP (alkaline phosphatase, placental type) expressed on the surface of CHO cells (human, UniProt P05187 23-506); assay: cell-based or functional assay
[3] = molecular target: T1, human ALPI (intestinal alkaline …); assay: cell-based or functional assay
[4] = molecular target: T3, human ALPL (tissue non-specific alkaline phosphatase) expressed on the surface of CHO cells (human, UniProt P05186 18-501); assay: cell-based or functional assay
T3 sequence (looked up): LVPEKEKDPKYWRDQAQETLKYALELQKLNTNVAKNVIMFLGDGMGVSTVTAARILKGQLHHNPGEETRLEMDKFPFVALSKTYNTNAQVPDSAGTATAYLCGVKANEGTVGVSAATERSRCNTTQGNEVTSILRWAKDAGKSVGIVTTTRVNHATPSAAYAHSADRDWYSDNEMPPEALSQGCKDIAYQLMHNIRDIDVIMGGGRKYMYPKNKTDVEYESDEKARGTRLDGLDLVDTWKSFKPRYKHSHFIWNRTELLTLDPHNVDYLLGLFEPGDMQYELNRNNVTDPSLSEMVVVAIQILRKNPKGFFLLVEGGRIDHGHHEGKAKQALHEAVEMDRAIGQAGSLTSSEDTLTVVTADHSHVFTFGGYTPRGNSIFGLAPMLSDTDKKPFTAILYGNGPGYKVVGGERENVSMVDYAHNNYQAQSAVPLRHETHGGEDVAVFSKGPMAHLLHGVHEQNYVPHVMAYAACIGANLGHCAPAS

[5] = molecular target: T2, human ALPP (alkaline phosphatase, …); assay: flow cytometry on CHO-ALPP cells, apparent KD (KDapp)
Method in brief: (§1)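 Cell-surface binding to CHO cells stably transfected with human ALPP, ALPPL2, ALPI or ALPL; cells detached with 0.1% EDTA/PBS, incubated with biparatopic VHH-hFc drug conjugates over a concentration range for 1 hr on ice. Bound agent detected with FITC anti-human Ab (30 min, ice, dark) by flow cytometry; KDapp derived from binding.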

[6] = molecular target: T4, human ALPPL2 (alkaline phosphatase, germ cell type) expressed on the surface of CHO cells (human, UniProt P10696 20-503); assay: flow cytometry on CHO-ALPPL2 cells, apparent KD (KDapp)
T4 construct: whole, on cells; The cell-surface form has none; also called CHO-ALPPL2; hALPPL2
Method in brief: as §1

[7] = molecular target: T3, human ALPL (tissue non-specific …); assay: flow cytometry, CHO-ALPL cells
[8] = molecular target: T4, human ALPPL2 (alkaline phosphatase, …); assay: cell-based or functional assay
[9] = molecular target: T1, human ALPI (intestinal alkaline …); assay: flow cytometry, CHO-ALPI cells

T4 sequence (P10696 20-503): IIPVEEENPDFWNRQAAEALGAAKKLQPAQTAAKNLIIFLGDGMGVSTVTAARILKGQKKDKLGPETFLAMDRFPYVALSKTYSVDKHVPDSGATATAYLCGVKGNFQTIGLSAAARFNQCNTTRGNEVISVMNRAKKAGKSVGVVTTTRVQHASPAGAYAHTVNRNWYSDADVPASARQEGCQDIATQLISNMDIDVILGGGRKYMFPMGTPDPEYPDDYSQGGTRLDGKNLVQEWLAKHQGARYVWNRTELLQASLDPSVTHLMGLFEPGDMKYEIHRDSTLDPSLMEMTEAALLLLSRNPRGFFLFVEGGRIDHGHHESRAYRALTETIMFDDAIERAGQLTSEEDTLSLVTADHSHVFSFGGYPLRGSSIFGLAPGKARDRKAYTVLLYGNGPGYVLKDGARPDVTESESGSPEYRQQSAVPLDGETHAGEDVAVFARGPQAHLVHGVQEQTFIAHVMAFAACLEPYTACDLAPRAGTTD
T2 sequence (P05187 23-506 limits assumed): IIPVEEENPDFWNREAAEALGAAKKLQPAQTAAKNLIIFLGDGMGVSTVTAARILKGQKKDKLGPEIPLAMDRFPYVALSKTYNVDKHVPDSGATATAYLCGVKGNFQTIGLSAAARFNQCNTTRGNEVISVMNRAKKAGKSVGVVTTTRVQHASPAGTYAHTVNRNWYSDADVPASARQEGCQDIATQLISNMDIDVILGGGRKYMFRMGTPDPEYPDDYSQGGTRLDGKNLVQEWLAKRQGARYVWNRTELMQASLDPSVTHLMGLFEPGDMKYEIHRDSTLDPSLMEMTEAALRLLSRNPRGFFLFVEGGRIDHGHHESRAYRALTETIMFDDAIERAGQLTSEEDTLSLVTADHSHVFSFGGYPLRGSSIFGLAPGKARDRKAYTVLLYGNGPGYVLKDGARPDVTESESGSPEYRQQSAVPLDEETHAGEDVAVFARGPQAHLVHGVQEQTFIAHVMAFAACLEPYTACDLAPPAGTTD

MFI on CHO-ALPI cells at 350 nM as percent of MFI on CHO-ALPP cells (KDapp not-determinable) [1]: ≤ 1% | Kd [5]: 14.4 nM | Kd [6]: 5 nM
B1: D10 A06-hFc (S239/442C T366Y/Y407T), [G4S]1 linker, MC-vc-PAB-MMAE conjugate, #676 (Fc fusion, DAR 4)
chain 1: QVQLVESGGGLVQPGGSLRLSCAASGSIFSVNTMGWYRQAPGKQRDLVAVATSGGTIHYADSVKGRFTISRDNAKNTVYLQMNSLKPEDTAVYYCNLVVPYGMIAGDHDYWGQGTKVTVSSGGGGSEPKSSDKTHTCPPCPAPELLGGPCVFLFPPKPKDTLMISRTPEVTCVVVDVSHEDPEVKFNWYVDGVEVHNAKTKPREEQYNSTYRVVSVLTVLHQDWLNGKEYKCKVSNKALPAPIEKTISKAKGQPREPQVYTLPPSRDELTKNQVSLYCLVKGFYPSDIAVEWESNGQPENNYKTTPPVLDSDGSFFLYSKLTVDKSRWQQGNVFSCSVMHEALHNHYTQKSLCLSPGK
chain 2: QVHLVESGGGLVQAGGSLRLSCAASGRTFLSMGWFRQAPGKEREFVAAISWTGGSTGYADSVKGRFTISRESDKETMYLQMNSLKPEDTAVYYCAARGDVYYGGDDATRYKYWGQGTQVTVSSGGGGSEPKSSDKTHTCPPCPAPELLGGPCVFLFPPKPKDTLMISRTPEVTCVVVDVSHEDPEVKFNWYVDGVEVHNAKTKPREEQYNSTYRVVSVLTVLHQDWLNGKEYKCKVSNKALPAPIEKTISKAKGQPREPQVYTLPPSRDELTKNQVSLTCLVKGFYPSDIAVEWESNGQPENNYKTTPPVLDSDGSFFLTSKLTVDKSRWQQGNVFSCSVMHEALHNHYTQKSLCLSPGK
modifications: MC-vc-PAB-MMAE on Cys of S239C and S442C (EU numbering)
notes: Biparatopic knob-into-hole VHH-hFc heterodimer, DAR 4; The assignment of T366Y to the first named VHH and Y407T to the second follows the order of the name; No paragraph spells out this pair; also called D10-A06-hFc-vcPAB-MMAE; D10-A06 hFc-vc-MMAE
IC50 at 96 h, cell-killing of CHO-ALPP cells [2]: 5 nM | IC50 at 96 h, cell-killing of CHO-ALPI cells [3]: > 1000 nM | IC50 at 96 h, cell-killing of CHO-ALPL cells [4]: > 1000 nM | binding result [7]: no binding (tested: 350 nM (highest concentration))

Kd [5]: 6.9 nM | Kd [6]: 5 nM
B2: D10 E10-hFc (S239/442C T366Y/Y407T), [G4S]1 linker, MC-vc-PAB-MMAE conjugate, #678 (Fc fusion, DAR 4)
chain 1: B1 chain 1
chain 2: QVQLVESGGGLVQAGGSLRLSCAVSGRALSDYNIGWFRQAPGKEREFVARKTWDGSSTRYDDSVKGRFTVSIEDAKNTAYLQMSSLKTEDTAVYYCAAGRYSRARGWEYDYWGQGTQVTVSSGGGGSEPKSSDKTHTCPPCPAPELLGGPCVFLFPPKPKDTLMISRTPEVTCVVVDVSHEDPEVKFNWYVDGVEVHNAKTKPREEQYNSTYRVVSVLTVLHQDWLNGKEYKCKVSNKALPAPIEKTISKAKGQPREPQVYTLPPSRDELTKNQVSLTCLVKGFYPSDIAVEWESNGQPENNYKTTPPVLDSDGSFFLTSKLTVDKSRWQQGNVFSCSVMHEALHNHYTQKSLCLSPGK
modifications: MC-vc-PAB-MMAE on Cys of S239C and S442C (EU numbering)
notes: Biparatopic knob-into-hole VHH-hFc heterodimer, DAR 4; also called D10-E10-hFc-vcPAB-MMAE; D10-E10 hFc-vc-MMAE
IC50 at 96 h, cell-killing of CHO-ALPI cells (estimated from data extrapolation) [3]: ~972 nM | IC50 at 96 h, cell-killing of CHO-ALPL cells [4]: > 1000 nM | IC50 at 96 h, cell-killing of CHO-ALPPL2 cells [8]: 12.8 nM | binding result [9]: no binding (tested: 350 nM (highest concentration)) | binding result [7]: no binding (tested: 350 nM (highest concentration))

Kd [5]: 6.6 nM | Kd [6]: 5.2 nM
B3: D10 F05-hFc (S239/442C T366Y/Y407T), [G4S]1 linker, MC-vc-PAB-MMAE conjugate, #679 (Fc fusion, DAR 4)
chain 1: B1 chain 1
chain 2: B2 chain 2 with V24A, L29F, S30G, K51R, E73D, D74N, S84N, A104V
modifications: MC-vc-PAB-MMAE on Cys of S239C and S442C (EU numbering)
notes: Biparatopic knob-into-hole VHH-hFc heterodimer, DAR 4; also called D10-F05-hFc-vcPAB-MMAE; D10-F05 hFc-vc-MMAE
IC50 at 96 h, cell-killing of CHO-ALPI cells [3]: > 1000 nM | IC50 at 96 h, cell-killing of CHO-ALPL cells [4]: > 1000 nM | IC50 at 96 h, cell-killing of CHO-ALPPL2 cells [8]: 16.1 nM | binding result [9]: no binding (tested: 350 nM (highest concentration)) | binding result [7]: no binding (tested: 350 nM (highest concentration))

Kd [5]: 7.4 nM | Kd [6]: 3.5 nM
B4: D10 F05-hFc (S239/442C T366Y/Y407T), [G4S]3 linker, MC-vc-PAB-MMAE conjugate, #637 (Fc fusion, DAR 4)
chain 1: QVQLVESGGGLVQPGGSLRLSCAASGSIFSVNTMGWYRQAPGKQRDLVAVATSGGTIHYADSVKGRFTISRDNAKNTVYLQMNSLKPEDTAVYYCNLVVPYGMIAGDHDYWGQGTKVTVSSGGGGSGGGGSGGGGSEPKSSDKTHTCPPCPAPELLGGPCVFLFPPKPKDTLMISRTPEVTCVVVDVSHEDPEVKFNWYVDGVEVHNAKTKPREEQYNSTYRVVSVLTVLHQDWLNGKEYKCKVSNKALPAPIEKTISKAKGQPREPQVYTLPPSRDELTKNQVSLYCLVKGFYPSDIAVEWESNGQPENNYKTTPPVLDSDGSFFLYSKLTVDKSRWQQGNVFSCSVMHEALHNHYTQKSLCLSPGK
chain 2: QVQLVESGGGLVQAGGSLRLSCAASGRAFGDYNIGWFRQAPGKEREFVARRTWDGSSTRYDDSVKGRFTVSIDNAKNTAYLQMNSLKTEDTAVYYCAAGRYSRVRGWEYDYWGQGTQVTVSSGGGGSGGGGSGGGGSEPKSSDKTHTCPPCPAPELLGGPCVFLFPPKPKDTLMISRTPEVTCVVVDVSHEDPEVKFNWYVDGVEVHNAKTKPREEQYNSTYRVVSVLTVLHQDWLNGKEYKCKVSNKALPAPIEKTISKAKGQPREPQVYTLPPSRDELTKNQVSLTCLVKGFYPSDIAVEWESNGQPENNYKTTPPVLDSDGSFFLTSKLTVDKSRWQQGNVFSCSVMHEALHNHYTQKSLCLSPGK
modifications: MC-vc-PAB-MMAE on Cys of S239C and S442C (EU numbering)
notes: Biparatopic knob-into-hole VHH-hFc heterodimer, DAR 4; also called D10-F05 hFc-vcPAB-MMAE; D10-F05 hFc-vc-MMAE
IC50 at 96 h, cell-killing of CHO-ALPI cells [3]: > 1000 nM | IC50 at 96 h, cell-killing of CHO-ALPL cells [4]: > 1000 nM | IC50 at 96 h, cell-killing of CHO-ALPPL2 cells [8]: 13 nM | binding result [9]: no binding (tested: 350 nM (highest concentration)) | binding result [7]: no binding (tested: 350 nM (highest concentration))

MFI on CHO-ALPI cells at 350 nM as percent of MFI on CHO-ALPP cells (KDapp not-determinable) [1]: ≤ 1% | Kd [5]: 7.6 nM | Kd [6]: 4.4 nM
B5: D10 A06-hFc (S239/442C T366Y/Y407T), [G4S]3 linker, MC-vc-PAB-MMAE conjugate, #633 (Fc fusion, DAR 4)
chain 1: B4 chain 1
chain 2: QVHLVESGGGLVQAGGSLRLSCAASGRTFLSMGWFRQAPGKEREFVAAISWTGGSTGYADSVKGRFTISRESDKETMYLQMNSLKPEDTAVYYCAARGDVYYGGDDATRYKYWGQGTQVTVSSGGGGSGGGGSGGGGSEPKSSDKTHTCPPCPAPELLGGPCVFLFPPKPKDTLMISRTPEVTCVVVDVSHEDPEVKFNWYVDGVEVHNAKTKPREEQYNSTYRVVSVLTVLHQDWLNGKEYKCKVSNKALPAPIEKTISKAKGQPREPQVYTLPPSRDELTKNQVSLTCLVKGFYPSDIAVEWESNGQPENNYKTTPPVLDSDGSFFLTSKLTVDKSRWQQGNVFSCSVMHEALHNHYTQKSLCLSPGK
modifications: MC-vc-PAB-MMAE on Cys of S239C and S442C (EU numbering)
notes: Biparatopic knob-into-hole VHH-hFc heterodimer, DAR 4; The assignment of T366Y to the first named VHH and Y407T to the second follows the order of the name; No paragraph spells out this pair; also called D10-A06 hFc-vcPAB-MMAE; D10-A06-hFc-vc-MMAE
IC50 at 96 h, cell-killing of CHO-ALPP cells [2]: 10.1 nM | IC50 at 96 h, cell-killing of CHO-ALPI cells [3]: > 1000 nM | IC50 at 96 h, cell-killing of CHO-ALPL cells [4]: > 1000 nM | binding result [7]: no binding (tested: 350 nM (highest concentration))
